Results as given in IntAct's records for PubMed 21135508.

B1: Myotubularin (Homo sapiens), Q13496 (parent)
chain: MASASTSKYNSHSLENESIKRTSRDGVNRDLTEAVPRLPGETLITDKEVIYICPFNGPIKGRVYITNYRLYLRSLETDSSLILDVPLGVISRIEKMGGATSRGENSYGLDITCKDMRNLRFALKQEGHSRRDMFEILTRYAFPLAHSLPLFAFLNEEKFNVDGWTVYNPVEEYRRQGLPNHHWRITFINKCYELCDTYPALLVVPYRASDDDLRRVATFRSRNRIPVLSWIHPENKTVIVRCSQPLVGMSGKRNKDDEKYLDVIRETNKQISKLTIYDARPSVNAVANKATGGGYESDDAYHNAELFFLDIHNIHVMRESLKKVKDIVYPNVEESHWLSSLESTHWLEHIKLVLTGAIQVADKVSSGKSSVLVHCSDGWDRTAQLTSLAMLMLDSFYRSIEGFEILVQKEWISFGHKFASRIGHGDKNHTDADRSPIFLQFIDCVWQMSKQFPTAFEFNEQFLIIILDHLYSCRFGTFLFNCESARERQKVTERTVSLWSLINSNKEKFKNPFYTKEINRVLYPVASMRHLELWVNYYIRWNPRIKQQQPNPVEQRYMELLALRDEYIKRLEELQLANSAKLSDPPTSPSSPSQMMPHVQTHF

Variants of: B1
Settings: with desm_human DES

Variant | effect of a mutation on the interaction
P205L | disrupting interaction
R184G | disrupting interaction

The remaining lines, values ahead:

effect of a mutation on the interaction | Variant
disrupting interaction | R241C
disrupting interaction | D278A
